Source: patent US20140087995A1 (published 2014)
Blank lines part the entries; values can stand above or below the binder they belong to. Numbered stars: 1 amine (or outer) side, 2 acyl side, 3 side chain; on linkers, the order of the positions; unused ones are H or OH. Bridge positions count the residues as written; N and C are the ends. Side chains are listed from the residue outwards. Ends that are not written are not given here. * marks the point of attachment. C20 diacid = O=C(O)CCCCCCCCCCCCCCCCCCC(=O)*; γGlu = O=C(O)[C@H](CCC(=O)[*:2])N[*:1]

Experiments:
[1] = target: T1, human calcitonin receptor (human, UniProt P30988 25-474); test: ratio of IC50 at hCTR over IC50 at hAmylin-R (SPA competition assays)
T1 construct: whole, on cells; Membranes of BHK cells stably transfected with the human calcitonin receptor (Assay VII); also called hCTR; hCT
T1 sequence (looked up): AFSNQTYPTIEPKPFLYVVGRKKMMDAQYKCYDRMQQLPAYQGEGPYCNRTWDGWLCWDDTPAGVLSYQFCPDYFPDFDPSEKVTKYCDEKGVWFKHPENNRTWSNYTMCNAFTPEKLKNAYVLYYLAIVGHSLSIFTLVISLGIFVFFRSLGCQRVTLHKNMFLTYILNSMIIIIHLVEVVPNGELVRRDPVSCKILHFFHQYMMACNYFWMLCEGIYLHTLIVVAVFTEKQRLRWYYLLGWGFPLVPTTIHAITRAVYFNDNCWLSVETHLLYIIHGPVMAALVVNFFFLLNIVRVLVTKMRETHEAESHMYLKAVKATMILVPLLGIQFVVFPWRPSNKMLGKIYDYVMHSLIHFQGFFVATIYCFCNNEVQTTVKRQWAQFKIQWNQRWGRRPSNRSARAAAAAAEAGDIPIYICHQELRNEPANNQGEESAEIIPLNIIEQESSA
Outline: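 Membranes (35 ng/μL final) + SPA beads, 50 mM Hepes pH 7.4 buffer with 1 mM CaCl2, 5 mM MgCl₂, 0.1% OA, 0.02% Tween20; 120 min, 25° C, shaking; centrifuged, counted; IC₅₀ by one-site binding competition.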

[2] = target: T1, human calcitonin receptor; test: SPA competition against 125I-calcitonin, membranes of BHK cells with human calcitonin receptor (Assay VII)
Outline: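 BHK hCTR membranes 35 ng/μL + SPA beads 0.05 mg/well; buffer 50 mM Hepes pH 7.4, 1 mM CaCl2, 5 mM MgCl₂, 0.1% OA, 0.02% Tween20. 120 min, 25° C., shaking. Scintillation count; IC50 by one-site binding competition.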

Ratio hCT/hAmylin binding [1]: 29.1
IC50 [2]: 15.2 nM
B1: N^ε1-[(4S)-4-carboxy-4-[[(4S)-4-carboxy-4-(19-carboxynonadecanoylamino)butanoyl]amino]butanoyl]-[Glu14,Arg17,Pro21,Pro27,His34,Glu35]-h-amylin (peptide)
peptide: K([γGlu-γGlu-C20 diacid])CNTATCATQRLAEFLRHSSPNFGAIPSSTNVGHETY-NH2
modifications: disulfide 2-7; N-terminus assumed
SMILES: CC[C@H](C)[C@H](NC(=O)[C@H](C)NC(=O)CNC(=O)[C@H](Cc1ccccc1)NC(=O)[C@H](CC(N)=O)NC(=O)[C@@H]1CCCN1C(=O)[C@H](CO)NC(=O)[C@H](CO)NC(=O)[C@H](Cc1c[nH]cn1)NC(=O)[C@H](CCCNC(=N)N)NC(=O)[C@H](CC(C)C)NC(=O)[C@H](Cc1ccccc1)NC(=O)[C@H](CCC(=O)O)NC(=O)[C@H](C)NC(=O)[C@H](CC(C)C)NC(=O)[C@H](CCCNC(=N)N)NC(=O)[C@H](CCC(N)=O)NC(=O)[C@@H](NC(=O)[C@H](C)NC(=O)[C@@H]1CSSC[C@H](NC(=O)[C@@H](N)CCCCNC(=O)CC[C@H](NC(=O)CC[C@H](NC(=O)CCCCCCCCCCCCCCCCCCC(=O)O)C(=O)O)C(=O)O)C(=O)N[C@@H](CC(N)=O)C(=O)N[C@@H]([C@@H](C)O)C(=O)N[C@@H](C)C(=O)N[C@@H]([C@@H](C)O)C(=O)N1)[C@@H](C)O)C(=O)N1CCC[C@H]1C(=O)N[C@@H](CO)C(=O)N[C@@H](CO)C(=O)N[C@H](C(=O)N[C@@H](CC(N)=O)C(=O)N[C@H](C(=O)NCC(=O)N[C@@H](Cc1c[nH]cn1)C(=O)N[C@@H](CCC(=O)O)C(=O)N[C@H](C(=O)N[C@@H](Cc1ccc(O)cc1)C(N)=O)[C@@H](C)O)C(C)C)[C@@H](C)O

Ratio hCT/hAmylin binding [1]: 53.6
IC50 [2]: 17.5 nM
B2: N^ε1-[(4S)-4-carboxy-4-[[(4S)-4-carboxy-4-(19-carboxynonadecanoylamino)butanoyl]amino]butanoyl]-[Glu14,Arg17,Pro21,Pro27,Pro34,Arg35]-h-amylin (peptide)
peptide: K([γGlu-γGlu-C20 diacid])CNTATCATQRLAEFLRHSSPNFGAIPSSTNVGPRTY-NH2
modifications: disulfide 2-7; N-terminus assumed
SMILES: CC[C@H](C)[C@H](NC(=O)[C@H](C)NC(=O)CNC(=O)[C@H](Cc1ccccc1)NC(=O)[C@H](CC(N)=O)NC(=O)[C@@H]1CCCN1C(=O)[C@H](CO)NC(=O)[C@H](CO)NC(=O)[C@H](Cc1c[nH]cn1)NC(=O)[C@H](CCCNC(=N)N)NC(=O)[C@H](CC(C)C)NC(=O)[C@H](Cc1ccccc1)NC(=O)[C@H](CCC(=O)O)NC(=O)[C@H](C)NC(=O)[C@H](CC(C)C)NC(=O)[C@H](CCCNC(=N)N)NC(=O)[C@H](CCC(N)=O)NC(=O)[C@@H](NC(=O)[C@H](C)NC(=O)[C@@H]1CSSC[C@H](NC(=O)[C@@H](N)CCCCNC(=O)CC[C@H](NC(=O)CC[C@H](NC(=O)CCCCCCCCCCCCCCCCCCC(=O)O)C(=O)O)C(=O)O)C(=O)N[C@@H](CC(N)=O)C(=O)N[C@@H]([C@@H](C)O)C(=O)N[C@@H](C)C(=O)N[C@@H]([C@@H](C)O)C(=O)N1)[C@@H](C)O)C(=O)N1CCC[C@H]1C(=O)N[C@@H](CO)C(=O)N[C@@H](CO)C(=O)N[C@H](C(=O)N[C@@H](CC(N)=O)C(=O)N[C@H](C(=O)NCC(=O)N1CCC[C@H]1C(=O)N[C@@H](CCCNC(=N)N)C(=O)N[C@H](C(=O)N[C@@H](Cc1ccc(O)cc1)C(N)=O)[C@@H](C)O)C(C)C)[C@@H](C)O
notes: also called compound 110

Ratio hCT/hAmylin binding [1]: 7.8
IC50 [2]: 9.29 nM
B3: N^ε1-[(4S)-4-carboxy-4-[[(4S)-4-carboxy-4-(19-carboxynonadecanoylamino)butanoyl]amino]butanoyl]-[Glu14,Arg17,Pro23,Pro34,Glu35]-h-amylin (peptide)
peptide: K([γGlu-γGlu-C20 diacid])CNTATCATQRLAEFLRHSSNNPGAILSSTNVGPETY-NH2
modifications: disulfide 2-7; N-terminus assumed
SMILES: CC[C@H](C)[C@H](NC(=O)[C@H](C)NC(=O)CNC(=O)[C@@H]1CCCN1C(=O)[C@H](CC(N)=O)NC(=O)[C@H](CC(N)=O)NC(=O)[C@H](CO)NC(=O)[C@H](CO)NC(=O)[C@H](Cc1c[nH]cn1)NC(=O)[C@H](CCCNC(=N)N)NC(=O)[C@H](CC(C)C)NC(=O)[C@H](Cc1ccccc1)NC(=O)[C@H](CCC(=O)O)NC(=O)[C@H](C)NC(=O)[C@H](CC(C)C)NC(=O)[C@H](CCCNC(=N)N)NC(=O)[C@H](CCC(N)=O)NC(=O)[C@@H](NC(=O)[C@H](C)NC(=O)[C@@H]1CSSC[C@H](NC(=O)[C@@H](N)CCCCNC(=O)CC[C@H](NC(=O)CC[C@H](NC(=O)CCCCCCCCCCCCCCCCCCC(=O)O)C(=O)O)C(=O)O)C(=O)N[C@@H](CC(N)=O)C(=O)N[C@@H]([C@@H](C)O)C(=O)N[C@@H](C)C(=O)N[C@@H]([C@@H](C)O)C(=O)N1)[C@@H](C)O)C(=O)N[C@@H](CC(C)C)C(=O)N[C@@H](CO)C(=O)N[C@@H](CO)C(=O)N[C@H](C(=O)N[C@@H](CC(N)=O)C(=O)N[C@H](C(=O)NCC(=O)N1CCC[C@H]1C(=O)N[C@@H](CCC(=O)O)C(=O)N[C@H](C(=O)N[C@@H](Cc1ccc(O)cc1)C(N)=O)[C@@H](C)O)C(C)C)[C@@H](C)O

Ratio hCT/hAmylin binding [1]: 22.6
IC50 [2]: 1.56 nM
B4: N^ε1-[(4S)-4-carboxy-4-[[(4S)-4-carboxy-4-(19-carboxynonadecanoylamino)butanoyl]amino]butanoyl]-[Glu14,Arg17,Pro21,Pro31,Pro34,Glu35]-h-amylin (peptide)
peptide: K([γGlu-γGlu-C20 diacid])CNTATCATQRLAEFLRHSSPNFGAILSSTPVGPETY-NH2
modifications: disulfide 2-7 (inferred)

Ratio hCT/hAmylin binding [1]: 18
IC50 [2]: 2.73 nM
B5: N^ε1-[(4S)-4-carboxy-4-[[(4S)-4-carboxy-4-(19-carboxynonadecanoylamino)butanoyl]amino]butanoyl]-[Glu14,Arg17,Pro21,Pro27,Pro34,Phe37]-h-amylin (peptide)
peptide: K([γGlu-γGlu-C20 diacid])CNTATCATQRLAEFLRHSSPNFGAIPSSTNVGPNTF-NH2
modifications: disulfide 2-7; N-terminus assumed
SMILES: CC[C@H](C)[C@H](NC(=O)[C@H](C)NC(=O)CNC(=O)[C@H](Cc1ccccc1)NC(=O)[C@H](CC(N)=O)NC(=O)[C@@H]1CCCN1C(=O)[C@H](CO)NC(=O)[C@H](CO)NC(=O)[C@H](Cc1c[nH]cn1)NC(=O)[C@H](CCCNC(=N)N)NC(=O)[C@H](CC(C)C)NC(=O)[C@H](Cc1ccccc1)NC(=O)[C@H](CCC(=O)O)NC(=O)[C@H](C)NC(=O)[C@H](CC(C)C)NC(=O)[C@H](CCCNC(=N)N)NC(=O)[C@H](CCC(N)=O)NC(=O)[C@@H](NC(=O)[C@H](C)NC(=O)[C@@H]1CSSC[C@H](NC(=O)[C@@H](N)CCCCNC(=O)CC[C@H](NC(=O)CC[C@H](NC(=O)CCCCCCCCCCCCCCCCCCC(=O)O)C(=O)O)C(=O)O)C(=O)N[C@@H](CC(N)=O)C(=O)N[C@@H]([C@@H](C)O)C(=O)N[C@@H](C)C(=O)N[C@@H]([C@@H](C)O)C(=O)N1)[C@@H](C)O)C(=O)N1CCC[C@H]1C(=O)N[C@@H](CO)C(=O)N[C@@H](CO)C(=O)N[C@H](C(=O)N[C@@H](CC(N)=O)C(=O)N[C@H](C(=O)NCC(=O)N1CCC[C@H]1C(=O)N[C@@H](CC(N)=O)C(=O)N[C@H](C(=O)N[C@@H](Cc1ccccc1)C(N)=O)[C@@H](C)O)C(C)C)[C@@H](C)O

Ratio hCT/hAmylin binding [1]: 27.3
IC50 [2]: 10.3 nM
B6: N^ε1-[(4S)-4-carboxy-4-[[(4S)-4-carboxy-4-(19-carboxynonadecanoylamino)butanoyl]amino]butanoyl]-[Glu14,Arg17,Pro21,Pro27,Pro34,His35]-h-amylin (peptide)
peptide: K([γGlu-γGlu-C20 diacid])CNTATCATQRLAEFLRHSSPNFGAIPSSTNVGPHTY-NH2
modifications: disulfide 2-7 (inferred)

Ratio hCT/hAmylin binding [1]: 0.4
IC50 [2]: 0.226 nM
B7: N^ε1-[(4S)-4-carboxy-4-[[(4S)-4-carboxy-4-(19-carboxynonadecanoylamino)butanoyl]amino]butanoyl]-[Glu14,Arg17,Pro21,Pro27,Pro34,Glu35,Pro37]-h-amylin (peptide)
peptide: K([γGlu-γGlu-C20 diacid])CNTATCATQRLAEFLRHSSPNFGAIPSSTNVGPETP-NH2
modifications: disulfide 2-7; N-terminus assumed
SMILES: CC[C@H](C)[C@H](NC(=O)[C@H](C)NC(=O)CNC(=O)[C@H](Cc1ccccc1)NC(=O)[C@H](CC(N)=O)NC(=O)[C@@H]1CCCN1C(=O)[C@H](CO)NC(=O)[C@H](CO)NC(=O)[C@H](Cc1c[nH]cn1)NC(=O)[C@H](CCCNC(=N)N)NC(=O)[C@H](CC(C)C)NC(=O)[C@H](Cc1ccccc1)NC(=O)[C@H](CCC(=O)O)NC(=O)[C@H](C)NC(=O)[C@H](CC(C)C)NC(=O)[C@H](CCCNC(=N)N)NC(=O)[C@H](CCC(N)=O)NC(=O)[C@@H](NC(=O)[C@H](C)NC(=O)[C@@H]1CSSC[C@H](NC(=O)[C@@H](N)CCCCNC(=O)CC[C@H](NC(=O)CC[C@H](NC(=O)CCCCCCCCCCCCCCCCCCC(=O)O)C(=O)O)C(=O)O)C(=O)N[C@@H](CC(N)=O)C(=O)N[C@@H]([C@@H](C)O)C(=O)N[C@@H](C)C(=O)N[C@@H]([C@@H](C)O)C(=O)N1)[C@@H](C)O)C(=O)N1CCC[C@H]1C(=O)N[C@@H](CO)C(=O)N[C@@H](CO)C(=O)N[C@H](C(=O)N[C@@H](CC(N)=O)C(=O)N[C@H](C(=O)NCC(=O)N1CCC[C@H]1C(=O)N[C@@H](CCC(=O)O)C(=O)N[C@H](C(=O)N1CCC[C@H]1C(N)=O)[C@@H](C)O)C(C)C)[C@@H](C)O
